Data set [1] addresses EcGspD fragment 1-237 (peri-GspD), N0-N1-N2 subdomains of the secretin from enterotoxigenic E. coli (enterotoxigenic E. coli). Briefly: SPR.
Data set [2] concerns the molecule itself. Kind of data set: cryo-EM structure.

Regarding “B-pentamer of heat-labile enterotoxin (LTB5) (from UniProt P32890 22-124) (complex)”, the Kd in data set [1] came to 15.5 µM.

B1: V. cholerae GspD secretin (VcGspD), full-length recombinant channel (natural protein)
chain: NEFSASFKGTDIQEFINIVGRNLEKTIIVDPSVRGKVDVRSFDTLNEEQYYSFFLSVLEVYGFAVVEMDNGVLKVIKSKDAKTSAIPVLSGEERANGDEVITQVVAVKNVSVRELSPLLRQLIDNAGAGNVVHYDPANIILITGRAAVVNRLAEIIRRVDQAGDKEIEVVELNNASAAEMVRIVEALNKTTDAQNTPEFLKPKFVADERTNSILISGDPKVRERLKRLIKQLDVEMAAKGNNRVVYLKYAKAEDLVEVLKGVSENLQAEKGTGQPTTSKRNEVMIAAHADTNSLVLTAPQDIMNAMLEVIGQLDIRRAQVLIEALIVEMAEGDGINLGVQWGSLESGSVIQYGNTGASIGNVMIGLEEAKDTTQTKAVYDTNNNFLRNETTTTKGDYTKLASALSSIQGAAVSIAMGDWTALINAVSNDSSSNILSSPSITVMDNGEASFIVGEEVPVITGSTAGSNNDNPFQTVDRKEVGIKLKVVPQINEGNSVQLNIEQEVSNVLGANGAVDVRFAKRQLNTSVMVQDGQMLVLGGLIDERALESESKVPLLGDIPLLGQLFRSTSSQVEKKNLMVFIKPTIIRDGVTADGITQRKYNYIRAEQLFRAEKGLRLLDDASVPVLPKFGDDRRHSPEIQAFIEQMEAKQ
With B1, in data set [2], the “stoichiometry N” value turned out to be 12.

The record behind these values is article PMC2950906 (Nature structural & molecular biology, 2010).
